Assay results published in patent US10365283B2, “Activated HER3 as a marker for predicting therapeutic efficacy” (U3 PHARMA GMBH, priority 2006, dated 2019).

Target: T1, pHer3 in BxPC3 and Calu-3 xenografts (Homo sapiens, UniProt P21860)
T1 construct: on FFPE sections of BxPC3 xenografts; endogenous in cells; host or cells: BxPC3 (pancreas cancer) and Calu-3 (NSCLC) human tumour cells grown as xenografts in mice
Assay: Immunohistochemical staining with anti-pHer3 antibody 21D3 on FFPE sections of xenograft tumours after antibody administration
Format: in vivo
Details: FIGS. 7, 8 and 11, versus control IgG1
Protocol: FIG. 7: Immunohistochemical staining with rabbit monoclonal anti-p Her3 antibody (Cell Signalling 21D3, Lot 4 1:650 dilution, 0.074 ug/ml) on FFPE sections of BxPC3 xenografts, 20×. • (A) and (B) Tumour after administration of control IgG1 500 μg/mouse • (C) and (D) Tumour after administration of antibody U3-1287 500 μg/mouse • Stainings were done in duplicate on three independent xenografts.
FIG. 8: Immunohistochemical staining with rabbit monoclonal anti-pHer3 antibody (Cell Signalling 21D3, Lot 4 1:650 dilution, 0.074 ug/ml) on FFPE sections of BxPC3 xenografts, 20×. • (A) Tumour after administration of antibody U3-1287 25 μg/mouse • (B) Tumour after administration of antibody […] 100 μg/mouse • (C) Tumour after administration of antibody U3-1287 200 μg/mouse • (D) Tumour after administration of antibody U3-1287 500 μg/mouse • (E) Tumour after administration of control IgG1 500 μg/mouse. • Stainings were done in duplicate on three independent xenografts.
FIG. 11: Immunohistochemical staining with rabbit monoclonal anti pHer3 antibody (Cell Signalling 21D3, Lot 4 1:8000 dilution, 0.006 ug/ml) on FFPE sections Calu-3 xenografts, 40×. • (A) and (B) Tumour after administration of control IgG1 25 mg/kg 72 h • (C) and (D) Tumour after administration of antibody U3-1287 25 mg/kg 72 h • Stainings were done in duplicate on five independent xenografts.
Using a microtome, 2-4 μm thin sections were cut, mounted on silanized glass slides and dried at 60° C. for 30 minutes and at 38° C. overnight. Deparaffinisation and rehydration of the specimen was achieved by incubating 2×5 minutes in Xylol, 2×2 minutes in 100% ethanol and 2 minutes each in 96%, 80% and 70% ethanol. After rinsing 20 seconds in distilled water, the slides were incubated for two minutes in PBS. […]
The anti-tumor efficacy of a HER modulator were evaluated in human xenograft tumor studies. In these studies, human tumors were grown as xenografts in immunocompromised mice and therapeutic efficacy was measured by the degree of tumor growth inhibition in response to administrations of the HER modulator. […]

anti-HER3 antibody: anti-HER3 antibody U3-1287 administered to mice bearing BxPC3 or Calu-3 xenografts
reduction: membrane staining intensity (pHer3) | pHer3 positive cells compared to whole cell number in the tumour | tumour cells compared to whole cell number in the tumour
